T1: retinoic acid receptor RARβ (UniProt P10826 1-455, limits assumed)
T1 construct: mature; In vitro translated
T1 sequence (looked up): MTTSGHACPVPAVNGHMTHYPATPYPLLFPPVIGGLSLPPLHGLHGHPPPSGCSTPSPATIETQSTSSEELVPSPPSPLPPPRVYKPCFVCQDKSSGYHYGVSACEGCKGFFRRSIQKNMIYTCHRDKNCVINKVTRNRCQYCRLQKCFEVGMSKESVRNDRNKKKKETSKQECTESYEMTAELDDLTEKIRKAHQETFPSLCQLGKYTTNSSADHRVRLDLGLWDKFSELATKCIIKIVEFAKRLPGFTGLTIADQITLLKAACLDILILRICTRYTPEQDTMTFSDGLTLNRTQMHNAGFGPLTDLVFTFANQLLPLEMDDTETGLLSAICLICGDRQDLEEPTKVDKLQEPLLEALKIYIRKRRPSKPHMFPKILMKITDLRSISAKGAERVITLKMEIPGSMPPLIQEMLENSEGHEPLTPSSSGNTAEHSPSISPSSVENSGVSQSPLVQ

T2: retinoic acid receptor RARα (UniProt P10276 1-462, limits assumed)
T2 construct: mature; In vitro translated
T2 sequence (looked up): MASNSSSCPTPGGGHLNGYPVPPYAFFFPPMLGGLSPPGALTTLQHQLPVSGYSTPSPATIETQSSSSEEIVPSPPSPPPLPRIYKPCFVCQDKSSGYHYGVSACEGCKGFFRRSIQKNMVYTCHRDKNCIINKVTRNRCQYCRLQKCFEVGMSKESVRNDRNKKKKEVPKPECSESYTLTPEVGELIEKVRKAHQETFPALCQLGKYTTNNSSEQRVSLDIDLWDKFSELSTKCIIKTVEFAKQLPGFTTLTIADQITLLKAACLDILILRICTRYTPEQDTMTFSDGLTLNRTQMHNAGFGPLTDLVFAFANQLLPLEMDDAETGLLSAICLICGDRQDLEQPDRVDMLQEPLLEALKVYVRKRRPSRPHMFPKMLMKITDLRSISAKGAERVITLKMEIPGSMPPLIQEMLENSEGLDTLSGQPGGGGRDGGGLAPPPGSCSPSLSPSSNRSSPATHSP

T3: retinoic acid receptor RARγ (UniProt P13631 1-454, limits assumed)
T3 construct: mature; In vitro translated
T3 sequence (looked up): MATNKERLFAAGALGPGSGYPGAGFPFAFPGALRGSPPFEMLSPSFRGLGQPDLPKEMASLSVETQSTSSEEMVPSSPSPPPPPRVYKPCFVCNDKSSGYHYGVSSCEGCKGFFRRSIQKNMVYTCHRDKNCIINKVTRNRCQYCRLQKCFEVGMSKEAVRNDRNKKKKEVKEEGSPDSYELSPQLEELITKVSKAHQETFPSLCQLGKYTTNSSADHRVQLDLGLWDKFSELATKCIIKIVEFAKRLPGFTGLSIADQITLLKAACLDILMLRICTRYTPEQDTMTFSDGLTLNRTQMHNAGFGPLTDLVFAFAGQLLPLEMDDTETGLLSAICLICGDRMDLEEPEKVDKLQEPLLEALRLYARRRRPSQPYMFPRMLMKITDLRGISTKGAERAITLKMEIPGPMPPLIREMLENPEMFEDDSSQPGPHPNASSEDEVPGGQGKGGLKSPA

T4: retinoid x receptor (RXRα) (human, UniProt P19793 1-462)
T4 construct: mature; In vitro translated full length receptor; 35S-labelled in the column and immunoprecipitation experiments
T4 sequence (looked up): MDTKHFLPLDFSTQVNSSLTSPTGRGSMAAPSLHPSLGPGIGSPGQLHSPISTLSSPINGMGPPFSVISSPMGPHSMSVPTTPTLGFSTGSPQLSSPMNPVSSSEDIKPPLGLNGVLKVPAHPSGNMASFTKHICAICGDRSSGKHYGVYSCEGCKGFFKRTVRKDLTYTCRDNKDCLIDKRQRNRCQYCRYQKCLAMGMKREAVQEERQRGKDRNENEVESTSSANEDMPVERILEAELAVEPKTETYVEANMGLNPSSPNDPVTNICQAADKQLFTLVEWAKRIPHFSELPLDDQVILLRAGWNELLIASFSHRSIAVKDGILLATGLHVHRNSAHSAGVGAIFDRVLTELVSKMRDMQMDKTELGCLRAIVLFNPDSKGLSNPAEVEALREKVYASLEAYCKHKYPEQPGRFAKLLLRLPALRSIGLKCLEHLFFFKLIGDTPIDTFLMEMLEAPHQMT

T5: FLAG-RXRα (human, UniProt P19793 1-462)
T5 construct: mature; in vitro translated; also called F-RXRα
T5 sequence: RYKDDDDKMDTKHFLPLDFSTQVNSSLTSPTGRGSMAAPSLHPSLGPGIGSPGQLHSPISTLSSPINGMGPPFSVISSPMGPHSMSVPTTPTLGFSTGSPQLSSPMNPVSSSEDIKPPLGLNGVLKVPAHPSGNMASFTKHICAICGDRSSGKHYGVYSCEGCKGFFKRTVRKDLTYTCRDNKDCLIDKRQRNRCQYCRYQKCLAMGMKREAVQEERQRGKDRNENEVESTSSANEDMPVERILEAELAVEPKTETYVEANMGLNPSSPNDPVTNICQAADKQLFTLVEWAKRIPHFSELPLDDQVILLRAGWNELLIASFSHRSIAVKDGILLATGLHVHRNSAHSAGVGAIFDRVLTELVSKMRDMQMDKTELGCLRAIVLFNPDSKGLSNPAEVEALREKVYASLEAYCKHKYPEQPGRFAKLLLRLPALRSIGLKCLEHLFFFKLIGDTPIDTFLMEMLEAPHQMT

T6: estrogen receptor (ER) (UniProt P03372 1-595, limits assumed)
T6 construct: In vitro translated; 35S-labelled in the column experiment
T6 sequence (looked up): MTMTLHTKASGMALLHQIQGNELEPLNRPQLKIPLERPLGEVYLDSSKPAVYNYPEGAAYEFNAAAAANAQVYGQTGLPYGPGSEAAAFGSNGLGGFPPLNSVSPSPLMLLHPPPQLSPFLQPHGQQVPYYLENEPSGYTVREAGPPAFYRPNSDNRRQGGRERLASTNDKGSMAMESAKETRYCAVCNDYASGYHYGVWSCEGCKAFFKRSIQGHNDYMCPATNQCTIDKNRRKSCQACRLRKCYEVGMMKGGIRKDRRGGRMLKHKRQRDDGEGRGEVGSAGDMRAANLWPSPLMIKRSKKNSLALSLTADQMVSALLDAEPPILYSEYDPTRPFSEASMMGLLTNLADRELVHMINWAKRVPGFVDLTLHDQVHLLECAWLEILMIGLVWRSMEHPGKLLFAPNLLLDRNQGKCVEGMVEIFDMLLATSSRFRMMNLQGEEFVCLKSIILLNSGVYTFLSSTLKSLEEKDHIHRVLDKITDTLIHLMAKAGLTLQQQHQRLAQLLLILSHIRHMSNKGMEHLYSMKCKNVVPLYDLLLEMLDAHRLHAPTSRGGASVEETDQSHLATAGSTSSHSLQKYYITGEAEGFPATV

B1: RXRαm7 (receptor, human, UniProt P19793 1-462, looked up)
chain: MDTKHFLPLDFSTQVNSSLTSPTGRGSMAAPSLHPSLGPGIGSPGQLHSPISTLSSPINGMGPPFSVISSPMGPHSMSVPTTPTLGFSTGSPQLSSPMNPVSSSEDIKPPLGLNGVLKVPAHPSGNMASFTKHICAICGDRSSGKHYGVYSCEGCKGFFKRTVRKDLTYTCRDNKDCLIDKRQRNRCQYCRYQKCLATGLHVHRNSAHSAGVGAIFDRVLTELVSKMRDMQMDKTELGCLRAIVLFNPDSKGLSNPAEVEALREKVYASLEAYCKHKYPEQPGRFAKLLLRLPALRSIGLKCLEHLFFFKLIGDTPIDTFLMEMLEAPHQMT
notes: In vitro translated deletion mutant
B2: RXRαm2 (receptor, human, UniProt P19793 1-387, looked up)
chain: MDTKHFLPLDFSTQVNSSLTSPTGRGSMAAPSLHPSLGPGIGSPGQLHSPISTLSSPINGMGPPFSVISSPMGPHSMSVPTTPTLGFSTGSPQLSSPMNPVSSSEDIKPPLGLNGVLKVPAHPSGNMASFTKHICAICGDRSSGKHYGVYSCEGCKGFFKRTVRKDLTYTCRDNKDCLIDKRQRNRCQYCRYQKCLAMGMKREAVQEERQRGKDRNENEVESTSSANEDMPVERILEAELAVEPKTETYVEANMGLNPSSPNDPVTNICQAADKQLFTLVEWAKRIPHFSELPLDDQVILLRAGWNELLIASFSHRSIAVKDGILLATGLHVHRNSAHSAGVGAIFDRVLTELVSKMRDMQMDKTELGCLRAIVLFNPDSKGLSNPA
notes: range: lacks the carboxyterminal 75 amino acids; In vitro translated deletion mutant
B3: thyroid hormone receptor TRβ (receptor, human, UniProt P10828 1-461, looked up)
chain: MTPNSMTENGLTAWDKPKHCPDREHDWKLVGMSEACLHRKSHSERRSTLKNEQSSPHLIQTTWTSSIFHLDHDDVNDQSVSSAQTFQTEEKKCKGYIPSYLDKDELCVVCGDKATGYHYRCITCEGCKGFFRRTIQKNLHPSYSCKYEGKCVIDKVTRNQCQECRFKKCIYVGMATDLVLDDSKRLAKRKLIEENREKRRREELQKSIGHKPEPTDEEWELIKTVTEAHVATNAQGSHWKQKRKFLPEDIGQAPIVNAPEGGKVDLEAFSHFTKIITPAITRVVDFAKKLPMFCELPCEDQIILLKGCCMEIMSLRAAVRYDPESETLTLNGEMAVTRGQLKNGGLGVVSDAIFDLGMSLSSFNLDDTEVALLQAVLLMSSDRPGLACVERIEKYQDSFLLAFEHYINYRKHHVTHFWPKLLMKVTDLRMIGACHASRFLHMKVECPTELFPPLFLEVFED
notes: mature; In vitro translated; also called TR-B; c-erb-A-B
B4: glutathione S-transferase-RARγ fusion protein (bacterially expressed FLAG-RARγ fusion protein) (other)
chain: RYKDDDDKMATNKERLFAAGALGPGSGYPGAGFPFAFPGALRGSPPFEMLSPSFRGLGQPDLPKEMASLSVETQSTSSEEMVPSSPSPPPPPRVYKPCFVCNDKSSGYHYGVSSCEGCKGFFRRSIQKNMVYTCHRDKNCIINKVTRNRCQYCRLQKCFEVGMSKEAVRNDRNKKKKEVKEEGSPDSYELSPQLEELITKVSKAHQETFPSLCQLGKYTTNSSADHRVQLDLGLWDKFSELATKCIIKIVEFAKRLPGFTGLSIADQITLLKAACLDILMLRICTRYTPEQDTMTFSDGLTLNRTQMHNAGFGPLTDLVFAFAGQLLPLEMDDTETGLLSAICLICGDRMDLEEPEKVDKLQEPLLEALRLYARRRRPSQPYMFPRMLMKITDLRGISTKGAERAITLKMEIPGPMPPLIREMLENPEMFEDDSSQPGPHPNASSEDEVPGGQGKGGLKSPA
notes: mature; FLAG-RARγ cDNA cloned in frame into pGex-2T, expressed in bacteria, purified on glutathione sepharose 4B; also called RARγ-glutathione transferase fusion protein; glutathione transferase-RARγ; not shown: glutathione S-transferase encoded by the expression vector pGEX-2T (Pharmacia); vector linker not described

The test system of experiment [1] is RXRα-TRα and RXRα-RARα complexes. Description: Gel retardation assay of RXRα interaction with TRα or RARα on palindromic TRE. The experiment is classed as binding.
For experiment [2], the target named is T1, retinoic acid receptor RARβ. Description: gel retardation, 32P palindromic TRE (data not shown).
For experiment [3], the target named is B3. Described as above.
Experiment [4] concerns the target T2, retinoic acid receptor RARα. The experiment is described as above.
In experiment [5] the target is T3, retinoic acid receptor RARγ. Description: gel retardation, 32P palindromic TRE, in vitro translated receptors. How it is done:
(§1) After incubation at room temperature for 45 minutes, the effect of antibody on slow migrating complexes was analyzed by gel retardation using ^32-labelled palindromic TRE as a probe. As a control, receptor mixtures were also incubated with preimmune serum (NI).
(§2) In vitro translated receptor protein (1 to 5 µl depending on the translation efficiency) was incubated with the ^32P-labeled oligonucleotides in a 20-µl reaction mixture containing 10 mM hepes buffer, pH 7.9, 50 mM KCl, 1 mM DTT, 2.5 mM MgCl, 10% glycerol, and 1 µg of poly(dI-dC) at 25° C. for 20 minutes. In general, relative low receptor concentration was used to obtain the clear effect of heterodimer formation. The reaction mixture was then loaded on a 5% nondenaturing polyacrylamide gel containing 0.5× TBE (1×TBE=0.089 M TRIS-borate, 0.089 M boric acid, and 0.002 M EDTA). […] When antibody was used, 1 µl of the antiserum was incubated with the specific translation products at room temperature for 45 minutes before performing the experiments described above.

Experiment [6] addresses T4, retinoid x receptor (RXRα). Described as above. As for the experimental part:
as §1, §2

The next experiment deals with T5, FLAG-RXRα. The experiment is described as above. As for the experimental part:
as §1, §2

For a further experiment, the target named is T6, estrogen receptor (ER). Description: glutathione sepharose affinity column, 35S-labelled ER, no DNA.

The record followed here is US7098310B1, “Heterodimers of retinoid X receptors (RXRS) and other steroid hormone receptors” (Ligand Pharmaceuticals, priority 1991, dated 2006).

Consider `N[C@@H](Cc1cc(I)c(Oc2ccc(O)c(I)c2)c(I)c1)C(=O)O` [T3], for which the “effect on migration rate of the TRα complex” value in experiment [1] (T3 10^−7 M) is given as “slightly increases the migration rate”. Also, the “influence of hormone on formation of slow migrating complexes” value in experiment [1] (hormone 10^−7 M, TRα and RARα with RXRα) is reported as “no clear influence”.
With B1, the binding result in experiment [2], in experiment [3], in experiment [4] and in experiment [5] was “no binding” throughout.
For B2, the binding result in experiment [2], in experiment [3], in experiment [4] and in experiment [5] was “no binding” in each case.
With B3, the binding result (in experiment [6]; with FLAG-RXRα) was “binds” each time.
Consider B4, for which the binding result with estrogen receptor (ER) is “no binding”.
